Residue numbers refer to the chain shown, from its start. Like-named read-outs stand apart in the source and are kept apart here. One block for each binder: values may come before it.
Tests used:
[1] = biological target: T1, cynomolgus monkey C-KIT-Fc (cynomolgus monkey); test: HTRF competition vs Tb-h37M IgG1
T1 construct: also called cyno C-KIT-Fc

human C-KIT-Fc [2] = biological target: T2, human C-KIT-Fc (human, UniProt P10721 26-524); test: HTRF competition vs Tb-h37M IgG1
T2 construct: also called biotinylated human C-KIT-Fc; not shown: Fc part not described

human C-KIT-Fc [3] = biological target: T2, human C-KIT-Fc; test: direct titration ELISA on coated C-KIT-Fc, IgG1 format
human C-KIT-Fc [4] = biological target: T2, human C-KIT-Fc; test: HTRF competition vs Tb-h37M IgG1; remark: listed apart in the source
[5] = biological target: T3, cynomolgus monkey C-KIT, full length, on CHO-K1 cells (cynomolgus monkey); test: flow cytometry, C-KIT-transfected CHO-K1 cells, IgG1 format
T3 construct: whole, on cells; also called cyno C-KIT+ CHO-K1 cells

[6] = biological target: T1, cynomolgus monkey C-KIT-Fc; test: direct ELISA at 1 µg/ml
human C-KIT-Fc [7] = biological target: T2, human C-KIT-Fc; test: direct ELISA at 1 µg/ml
human C-KIT-Fc [8] = biological target: T2, human C-KIT-Fc; test: direct titration ELISA on coated C-KIT-Fc, IgG1 format; remark: listed apart in the source
[9] = biological target: T4, human C-KIT, full length, on cells (human, UniProt P10721 26-976); test: flow cytometry, C-KIT-transfected CHO-K1 cells, IgG1 format
T4 construct: full-length cDNA stably transfected in CHO-K1; also used here for endogenous C-KIT of TF-1 cells; also called human C-KIT+ CHO-K1 cells; C-KIT on TF-1 cells

MMP7 = biological target: T5, MMP7 (human, UniProt P09237 95-267); test: cell array, HEK293 re-array slides
T5 construct: whole, on cells
T5 sequence (looked up): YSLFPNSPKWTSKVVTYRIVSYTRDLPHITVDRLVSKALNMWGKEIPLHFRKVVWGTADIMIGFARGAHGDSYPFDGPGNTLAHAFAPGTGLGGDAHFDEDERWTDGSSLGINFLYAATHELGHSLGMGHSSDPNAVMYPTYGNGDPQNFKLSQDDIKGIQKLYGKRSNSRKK

F13A1 = biological target: T6, F13A1 (human, UniProt P00488 39-732); test: cell array, HEK293 re-array slides
T6 construct: whole, on cells
T6 sequence (looked up): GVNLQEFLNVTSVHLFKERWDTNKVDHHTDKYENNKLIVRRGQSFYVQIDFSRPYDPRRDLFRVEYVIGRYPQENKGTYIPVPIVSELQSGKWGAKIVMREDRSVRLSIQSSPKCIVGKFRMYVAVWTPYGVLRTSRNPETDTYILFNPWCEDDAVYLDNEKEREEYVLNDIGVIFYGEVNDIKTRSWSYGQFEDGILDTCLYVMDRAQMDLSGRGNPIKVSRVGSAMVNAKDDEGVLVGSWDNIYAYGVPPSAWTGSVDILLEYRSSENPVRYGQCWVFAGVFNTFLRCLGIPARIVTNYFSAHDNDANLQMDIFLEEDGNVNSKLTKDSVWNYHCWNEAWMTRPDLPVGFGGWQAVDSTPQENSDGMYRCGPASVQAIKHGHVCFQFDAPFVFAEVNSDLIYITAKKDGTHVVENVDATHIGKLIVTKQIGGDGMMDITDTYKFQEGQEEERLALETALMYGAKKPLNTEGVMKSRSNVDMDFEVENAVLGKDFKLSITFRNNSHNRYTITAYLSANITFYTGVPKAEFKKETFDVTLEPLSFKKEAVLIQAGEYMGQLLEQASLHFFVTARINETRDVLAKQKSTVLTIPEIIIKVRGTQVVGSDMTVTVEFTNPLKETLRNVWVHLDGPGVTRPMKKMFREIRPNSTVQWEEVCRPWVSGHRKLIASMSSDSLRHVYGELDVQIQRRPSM

CRIM1 = biological target: T7, CRIM1 (human, UniProt Q9NZV1 35-1036); test: cell array, HEK293 re-array slides
T7 construct: whole, on cells
T7 sequence (looked up): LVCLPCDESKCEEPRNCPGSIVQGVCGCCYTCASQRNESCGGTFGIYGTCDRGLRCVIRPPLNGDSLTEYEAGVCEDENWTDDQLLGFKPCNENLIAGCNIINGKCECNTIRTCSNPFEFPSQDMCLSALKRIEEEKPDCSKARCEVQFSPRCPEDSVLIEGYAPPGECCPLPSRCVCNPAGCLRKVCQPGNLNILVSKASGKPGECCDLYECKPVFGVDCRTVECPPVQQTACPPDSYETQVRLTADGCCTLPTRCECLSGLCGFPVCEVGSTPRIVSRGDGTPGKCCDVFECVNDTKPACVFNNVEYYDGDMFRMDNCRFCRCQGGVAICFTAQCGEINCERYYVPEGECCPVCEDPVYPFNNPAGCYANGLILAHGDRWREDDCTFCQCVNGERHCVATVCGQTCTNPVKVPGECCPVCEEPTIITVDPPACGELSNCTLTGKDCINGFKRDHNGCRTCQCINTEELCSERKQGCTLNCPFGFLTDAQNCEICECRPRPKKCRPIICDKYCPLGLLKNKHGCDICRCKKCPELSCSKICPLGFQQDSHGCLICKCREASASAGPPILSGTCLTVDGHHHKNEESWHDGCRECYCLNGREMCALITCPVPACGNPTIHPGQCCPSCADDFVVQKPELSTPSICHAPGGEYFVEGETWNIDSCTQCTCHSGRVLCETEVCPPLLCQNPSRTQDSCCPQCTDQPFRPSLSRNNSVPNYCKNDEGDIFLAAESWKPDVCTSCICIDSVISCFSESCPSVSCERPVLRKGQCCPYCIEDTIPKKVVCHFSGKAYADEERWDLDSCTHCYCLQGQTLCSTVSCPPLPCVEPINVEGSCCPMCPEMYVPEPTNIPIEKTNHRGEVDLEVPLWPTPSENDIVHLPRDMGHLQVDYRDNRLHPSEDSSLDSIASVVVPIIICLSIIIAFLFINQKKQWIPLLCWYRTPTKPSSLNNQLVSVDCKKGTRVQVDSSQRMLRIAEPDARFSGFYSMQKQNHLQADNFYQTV

IC50 [1]: 0.164 µg/mL
IC50 (human C-KIT-Fc [2]): 0.134 µg/mL
EC50 (read off the curve) [5]: ~0.4 µg/mL
OD450 nm [6]: > 2 OD450 nm
OD450 nm (human C-KIT-Fc [7]): > 1.8 OD450 nm
EC50 (read off the curve) [9]: ~0.4 µg/mL
B3: MH5.22 (antibody, IgG1, V domains shown)
VH: QVQLVQSGAEVKKPGASVKVSCKASGYTFTDFYMNWVRQAPGQGLEWMGRIYPASGNTYYAQKFQGRVTMTRDTSTSTVYMELSSLRSEDTAVYYCARGVWYYDYWGQGTLVTVSS
VL: DIQMTQSPSSLSASVGDRVTITCRASQGIRTNLAWFQQKPGKAPKSLIYAASSLQSGVPSRFSGSGSGTDFTLTISSLQPEDFATYYCQQYANYPRTFGGGTKVEIK
notes: IgG1; also called C-KIT-MH5.22

IC50 (human C-KIT-Fc [2]): 0.016 µg/mL
EC50 (read off the curve) (human C-KIT-Fc [3]): ~0.2 µg/mL
IC50 (human C-KIT-Fc [4]): 0.025 µg/mL
binding result (MMP7): no binding (tested: 0.5 and 2 µg/ml)
binding result (F13A1): no binding (tested: 0.5 and 2 µg/ml)
binding result (CRIM1): no binding (tested: 0.5 and 2 µg/ml)
OD450 nm (human C-KIT-Fc [7]): > 1.8 OD450 nm
EC50 (read off the curve) (human C-KIT-Fc [8]): ~0.1 µg/mL
EC50 (read off the curve) [9]: ~0.2 µg/mL
B4: humanized h37M, human IgG1 (antibody, V domains shown)
VH: QVQLVQSGAEVKKPGASVKLSCKASGYTFTDYYINWVRQAPGKGLEWIARIYPGSGNTYYNEKFKGRATLTADKSTSTAYMQLSSLRSEDTAVYFCARGVYYFDYWGQGTTVTVSS
VL: DIVMTQSPSSLSASVGDRVTITCKASQNVRTNVAWYQQKPGKAPKALIYSASYRYSGVPDRFTGSGSGTDFTLTISSLQPEDFADYFCQQYNSYPRTFGGGTKVEIK
notes: human IgG1; terbium-labelled as the tracer of the HTRF assays; also called C-KIT-h37M; h37M-IgG1

More lines, now with the values behind:

B1: MH5, human IgG1 (antibody, V domains shown)
VH: B3 VH with F32Y, A54G, W101Y
VL: B3 VL with A50S
notes: IgG1; also called C-KIT-MH5; C-KIT-MHS
IC50 [1]: 0.058 µg/mL
IC50 (human C-KIT-Fc [2]): 0.067 µg/mL
EC50 (read off the curve) (human C-KIT-Fc [3]): ~0.1 µg/mL
IC50 (human C-KIT-Fc [4]): 0.063 µg/mL
EC50 (read off the curve) [5]: ~0.5 µg/mL
OD450 nm [6]: > 2 OD450 nm
OD450 nm (human C-KIT-Fc [7]): > 1.8 OD450 nm
EC50 (read off the curve) (human C-KIT-Fc [8]): ~0.1 µg/mL
EC50 (read off the curve) [9]: ~0.3 µg/mL

B2: MH1, human IgG1 (antibody, V domains shown)
VH: B3 VH with F32Y, A54G, W101Y
VL: B3 VL with A92N, N93S
notes: IgG1; also called IgG1-MH1
EC50 (read off the curve) (human C-KIT-Fc [3]): ~0.1 µg/mL
binding result (MMP7): no binding (tested: 0.5 and 2 µg/ml)
binding result (F13A1): no binding (tested: 0.5 and 2 µg/ml)
binding result (CRIM1): no binding (tested: 0.5 and 2 µg/ml)
OD450 nm [6]: > 2 OD450 nm
OD450 nm (human C-KIT-Fc [7]): > 1.8 OD450 nm
